Assay results taken from patent publication US20180142007A1 (AXON NEUROSCIENCE, published 2018).

How the values were obtained:
Assay in all cases: direct ELISA, tau peptide coated on plate
tau peptide 256-285 = target: T1, tau peptide 256-285 (human)
T1 construct: Synthetic peptide (EZBiolabs), numbered on tau 2N4R
T1 peptide: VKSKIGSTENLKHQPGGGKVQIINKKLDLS

tau peptide 282-311 = target: T2, tau peptide 282-311 (human)
T2 construct: Synthetic peptide (EZBiolabs), numbered on tau 2N4R; also called peptide derived from MTBRII
T2 peptide: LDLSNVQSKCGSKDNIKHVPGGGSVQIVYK

tau peptide 314-342 = target: T3, tau peptide 314-342 (human)
T3 construct: Synthetic peptide (EZBiolabs), numbered on tau 2N4R
T3 peptide: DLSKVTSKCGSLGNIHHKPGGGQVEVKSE

tau peptide 352-380 = target: T4, tau peptide 352-380 (human)
T4 construct: Synthetic peptide (EZBiolabs), numbered on tau 2N4R
T4 peptide: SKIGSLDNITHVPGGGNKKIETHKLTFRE

Measured: binding result

B1: chimeric DC8E8 (isotype not stated where tested) (antibody)
VH: QVQLQQSGPELVKPGTSVKMPCKASGYIFTDYVISWVKQRTGQGLEWIGEIFPRSGSTYYNEKFKGKATLTADKSSNTAYMQLSSVTSEDSAVYFCARDYYGTSFAMDYWGQGTSVTVSS
light: DIVMSQSPSSLAVSAGEKVTMSCKSSQSLLNSRTRKNYLAWYQQKPGQSPKLLIYWASTRESGVPDRFTGSGSGTDFTLTISSVQAEDLAVYYCKQSFYLRTFGGGTKLDIKRTVAAPSVFIFPPSDEQLKSGTASVVCLLNNFYPREAKVQWKVDNALQSGNSQESVTEQDSKDSTYSLSSTLTLSKADYEKHKVYACEVTHQGLSSPVTKSFNRGEC
notes: Whole chimeric antibody with human constant regions; also called chimeric antibody
binds: tau peptide 256-285 | tau peptide 282-311 | tau peptide 314-342 | tau peptide 352-380

B2: mouse monoclonal antibody DC8E8 (antibody, mouse IgG1)
heavy: QVQLQQSGPELVKPGTSVKMPCKASGYIFTDYVISWVKQRTGQGLEWIGEIFPRSGSTYYNEKFKGKATLTADKSSNTAYMQLSSVTSEDSAVYFCARDYYGTSFAMDYWGQGTSVTVSSAKTTPPSVYPLAPGSAAQTNSMVTLGCLVKGYFPEPVTVTWNSGSLSSGVHTFPAVLQSDLYTLSSSVTVPSSTWPSQTVTCNVAHPASSTKVDKKIVPRDCGCKPCICTVPEVSSVFIFPPKPKDVLTITLTPKVTCVVVDISKDDPEVQFSWFVDDVEVHTAQTKPREEQINSTFRSVSELPIMHQDWLNGKEFKCRVNSAAFPAPIEKTISKTKGRPKAPQVYTIPPPKEQMAKDKVSLTCMITNFFPEDITVEWQWNGQPAENYKNTQPIMDTDGSYFVYSKLNVQKSNWEAGNTFTCSVLHEGLHNHHTEKSLSHSPGK
VL: DIVMSQSPSSLAVSAGEKVTMSCKSSQSLLNSRTRKNYLAWYQQKPGQSPKLLIYWASTRESGVPDRFTGSGSGTDFTLTISSVQAEDLAVYYCKQSFYLRTFGGGTKLDIK
notes: also called murine DC8E8; mouse DC8E8
binds: tau peptide 256-285 | tau peptide 314-342 | tau peptide 352-380
